Assay results taken from the supplement of paper PMC10126150.
± gives the standard deviation of the averaged measurements.

Test system: ATP
Test: switch fluorescence ratio, 500 uM ATP over buffer (Cy3 cluster intensity, sum of 5 cycles each) (fold (ratio)); higher = stronger signal-on switching upon ATP binding; sequences stand for … in TCGTCGGCAGCGTCAGATGTGTATAAGAGACAGTTTTTTTTTTTTTTTTTTTTTTTTT…TC
Details: aptamer strand: ATP DNA aptamer (quencher-CACCTGGGGGAGTATTGCGGAGGAAGG + anchor), 100 nM annealed; ATP concentration: 500 uM
In short: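 Switching-strand clusters labelled with Cy3 on a modified Illumina MiSeq flow-cell were annealed to 100 nM quencher-labelled ATP aptamer, imaged in selection buffer, and re-imaged after 15 min with 500 uM ATP at 22 °C. This was done over five cycles with NaOH stripping and re-annealing in between. The fluorescence ratio is summed target-cycle over summed buffer-cycle Cy3 intensity per cluster, averaged per switch-domain sequence, excluding clusters outside 100-1000 RFU.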
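Further: ATP exposure 15 min at 22 °C before imaging.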

Sequence | switch fluorescence ratio
TGGGGATAAC | 0.969 ± 0.034
TACAGTGGAG | 1.011 ± 0.0044
GGTTTTTTTT | 0.992 ± 0.03
GATTTAAGTG | 1.018 ± 0.0065
GACAAGGGGG | 0.981 ± 0.065
AATTAATTGG | 0.994 ± 0.012
TTAGGACGCT | 1.03 ± 0.036
GGAGTTAGTC | 1.01 ± 0.021
TCGCTCACGG | 1.03 ± 0.021
GCAAACGGGG | 1.07 ± 0.041
TGGTTATTAC | 1.037 ± 0.0094
TTATAGTCGT | 1 ± 0.015
GTGTGGCAGG | 0.992 ± 0.024
GATAGTTTGT | 1 ± 0.011
AGGGGGGTTT | 1 ± 0.024
GCACAATTAG | 1.04 ± 0.0071
AATTAACTCT | 1.05 ± 0.02
ATATTCAGTA | 1 ± 0.015
AATTTTTTT | 0.992 ± 0.01
ACATGGGGAG | 1.02 ± 0.016
TATATGGCGG | 0.9719 ± 0.0074
AGGAACTTTT | 1.42 ± 0.56
GGGGAAACAT | 1.08 ± 0.013

Sequence | switch fluorescence ratio
TCTTTAAGGT | 1.04 ± 0.023
TTTAGGTGGT | 1.11 ± 0.2
CGCAAAGAGG | 1.18 ± 0.11
TATGCGCAGA | 1.01 ± 0.03
GAAAGCTGAG | 1.18 ± 0.033
AAAGGGGTCG | 1.07 ± 0.036
AGCAATATGG | 2.49 ± 0.051
CGCATACGGT | 4.124 ± 0.029
AAACGGCTAA | 1.02 ± 0.039
TTGGGGCTTA | 1.03 ± 0.038
AGAAAATAGA | 0.9789 ± 0.0084
TGCTGGATT | 0.983 ± 0.025
TTATTTTTCT | 1.01 ± 0.032
GGGGCGGCCT | 0.979 ± 0.04
GCAGTTTGGT | 0.9978 ± 0.0039
CGTCCCAGCT | 1.12 ± 0.018
GGTTTTGGCT | 0.991 ± 0.01
ATGCATCGGG | 0.9974 ± 0.0049
AAATACGCAG | 1.07 ± 0.1
TTGGAGATAG | 1.07 ± 0.1
GGGCATCGGG | 0.991 ± 0.013
GGTAGGGGGC | 1.01 ± 0.033
TTTTAGACTG | 1.05 ± 0.039

Sequence | switch fluorescence ratio
TTGAGGGATA | 1.01 ± 0.055
TTTCAATAGT | 1.09 ± 0.14
ATGAGAGAAT | 1.0144 ± 0.0004
GACGGGCCGT | 1.01 ± 0.021
AATGTCGCGC | 0.961 ± 0.016
GCGTGGGGAA | 1.07 ± 0.036
CTCGGACGGG | 0.995 ± 0.046
GCCCGCAGAA | 1.76 ± 0.024
CACCCGGGGT | 1.2099 ± 0.00019
TGGCCGCTTT | 1.03 ± 0.03
GGCTTGGGGA | 1.01 ± 0.036
CCTTGTGTTG | 1.01 ± 0.017
TATTTATGTT | 0.995 ± 0.031
GACGCGGTTC | 5.13 ± 0.77
AAATTTACAG | 1.03 ± 0.04
GGTGACCGTT | 0.992 ± 0.012
ATACGAGATT | 1.009 ± 0.0079
GACCATTTTT | 1.02 ± 0.038
AAAAAGGGCG | 0.989 ± 0.02
GGATCCGAGC | 1.03 ± 0.033
CGTCGGGTGG | 0.9882 ± 0.0028
TTTCTGCGGC | 1.046 ± 0.0017
GCCGAGTTTC | 1.02 ± 0.014

Sequence | switch fluorescence ratio
GGGCCCTTTT | 0.976 ± 0.019
TGGTTTTGCC | 1.005 ± 0.0082
GCTAGCTCAG | 1.023 ± 0.008
AAGATGTAGC | 1.006 ± 0.0053
TTGCGAGTC | 0.996 ± 0.062
TCATCTCTGG | 0.992 ± 0.024
ACATAGAGAT | 1.02 ± 0.039
GCAAGGTTAT | 1.01 ± 0.018
GTCAGTAGGC | 0.991 ± 0.017
AAAGGATCGT | 1.01 ± 0.02
TCTGGTCGCT | 1.018 ± 0.01
ATGGGGGGGT | 0.999 ± 0.025
TTCATGTGAA | 1 ± 0.04
CTGTCCAGTT | 1.02 ± 0.048
AAAAAACTTT | 1.05 ± 0.027
ATTAATAGG | 0.997 ± 0.026
AATTTTAAGC | 0.967 ± 0.041
TACGATAGTC | 1.06 ± 0.069
AAGATTGGGG | 0.977 ± 0.019
GGGGTGTTAG | 1.02 ± 0.012
TATTGGGTCA | 0.996 ± 0.03
AATTGGGGTT | 1.012 ± 0.0052
TTGTGTCTGC | 0.999 ± 0.011

Sequence | switch fluorescence ratio
AAGACGTTTT | 1.014 ± 0.0011
AGAGAGGGGC | 0.971 ± 0.014
TTCTAATTTT | 0.995 ± 0.027
AGGCTAGGGG | 1.01 ± 0.042
GCGAAAGGAA | 1.12 ± 0.14
TAAGAAGGTC | 1.01 ± 0.054
GACGCTAGGG | 1 ± 0.052
TAGATGTATT | 0.974 ± 0.013
TCGTGGATGG | 1 ± 0.026
TCGGGCGATG | 0.983 ± 0.036
TTATTGAGTA | 1.005 ± 0.0048
GTTTACGGGC | 1.03 ± 0.027
AATTTAAAG | 0.992 ± 0.037
AAATGGGGAA | 1.004 ± 0.0069
GGGGCAGGGT | 1.03 ± 0.064
ATTGGGATGG | 1 ± 0.014
TGCAAAGAGC | 0.9824 ± 0.0073
ACTGGGGGAA | 0.97 ± 0.018
CAGCTAGTGG | 1.011 ± 0.0011
CAAGATTTAT | 0.99 ± 0.023
AACTGGACTC | 1.14 ± 0.013
AGGTTGAAG | 0.976 ± 0.034
TATGAGCGCT | 1.03 ± 0.054

Sequence | switch fluorescence ratio
TGCTCAATGA | 0.9737 ± 0.0075
GGGGTTGGCG | 1.117 ± 0.0064
TTGGGTGAGC | 0.994 ± 0.024
ATTGTTATTG | 0.967 ± 0.065
CGAAGGTTTC | 1.034 ± 0.0023
TATAGACTTT | 1.02 ± 0.019
TAAAATGAGA | 0.98 ± 0.031
GGTTGGAGGT | 0.971 ± 0.019
GGTATTACGA | 0.989 ± 0.036
TTCCCTGTTT | 1.01 ± 0.023
CCTAGTTGGC | 1.03 ± 0.083
TGGGGTGAAC | 1 ± 0.025
GTGGCGAGGG | 0.996 ± 0.0078
TTTCATGGTA | 0.998 ± 0.0099
GGTTACCAGA | 0.9973 ± 0.0065
CAATGGGCGT | 1.0067 ± 0.00057
ATTAGCGAGA | 1.028 ± 0.0035
TCTTAAGGGC | 0.972 ± 0.01
CCTGGGTTAT | 1.02 ± 0.011
ATTCAGAGTG | 0.965 ± 0.02
AAGAATCTCT | 0.968 ± 0.045
TTTTGCGGGT | 0.983 ± 0.032
AGTGAGAGGG | 0.966 ± 0.051

Sequence | switch fluorescence ratio
ACCAGGCTTG | 1.02 ± 0.016
GAGTAAAACA | 1.16 ± 0.27
TTTGGTAGCT | 0.9596 ± 0.0037
ATCGATTGAG | 0.971 ± 0.015
AGGACTTGTG | 0.972 ± 0.023
CATAGGCTGG | 0.985 ± 0.016
AACCTGGGTA | 1.008 ± 0.0035
GCTGGGAATA | 0.9499 ± 0.0028
AAGCTGCATG | 1.01 ± 0.018
AATACCCGGG | 1.021 ± 0.0045
TCGGCTTGTT | 1.02 ± 0.02
CCGGTTTGGC | 1.062 ± 0.006
AGTTTATAAT | 0.982 ± 0.023
GGCGGAAGTC | 1.01 ± 0.013
TGTTTTAGAA | 1.01 ± 0.012
CCTTAAGTGT | 1.04 ± 0.041
TGGGTATTAG | 0.992 ± 0.054
TAGTCGGGTT | 0.9613 ± 0.0059
ATTCTACGGA | 1.02 ± 0.021
